{"source": "the nanobody polyreactivity screen of Harvey et al. (2022)"}
{"assay": "yeast display, Sf9 membrane polyspecificity reagent, FACS + sequencing; frameworks hold sequencing errors", "summary_of_the_method": "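Nanobodies from a synthetic yeast display library (Saccharomyces cerevisiae BJ5465), induced 36–48 hours with galactose, were stained 1 hour at 4 °C with 10% biotinylated, detergent-solubilized Sf9 membrane reagent, enriched on streptavidin microbeads, then FACS-sorted. Anti-HA (expression) and streptavidin (reagent binding) fluorescence set low and high (top ~1%) gates. Polyreactivity labels come from the gate of origin. Genes were colony-PCR amplified, MiSeq 2 × 250 sequenced and filtered by CDR length.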"}
{"sequence": "QVQLVESGGGLVQAGGSLRLSCAASGITSRYYAMGWYRQAPGKERELVAAITSDGRTNYADSVKGRFTISRDNAKNTVYLQMNSLKPEETAVYYCAVARYPYRYDYWGQGTQVTVSS", "polyreactivity (PSR sort gate)": "high polyreactivity"}
{"sequence": "QVQLVESGGGLVQAGGSLRLSCAASGITSSYAMGWYRQAPGKERELVAAISRGGSTYYADSVKGRFTISRDTAKNTVYLQMNSLKPEDTAVYYCNKRRYPYGWGQGTQVTVSS", "polyreactivity (PSR sort gate)": "high polyreactivity"}
{"sequence": "QVQLVESGGGLVQAGGSLRLSCAASGITYFEYAMGWYRQATGKETELVAGIRFSGSTTYYADSVKGRFTISRDNAKNTVYLQMNSLKPEDTAVYYCNVDYYSGLYDYDSWGQGTQVTVSS", "polyreactivity (PSR sort gate)": "low polyreactivity"}
{"sequence": "QVQLVESGGGLVQAGGSLRLSCAASGITYGYNTMGWYRQAPGKERELVADISRSGGRTYYADSVKARFTISRDNAKNTVYLQMNSLKPEDTAVYYCAAVSNSGHYYYWGQGTQVTVSS", "polyreactivity (PSR sort gate)": "high polyreactivity"}
{"sequence": "QVQLVESGGGLVQAGGSLRLSCAASGITYSYYAMGWYRQAPGKEREFVAAISRTGTSTYYADSVKGRFTISRDNAKNTVYLQMNSLNPEDTADYFCAAVPRHPYHDKYDYWGQGTQVTVSS", "polyreactivity (PSR sort gate)": "high polyreactivity"}
{"sequence": "QVQLVESGGGLVQAGGSLRLSCAASGIWNMGWYRQAPGKERELVAAISWSGASTYYADSVKGRFTISRDNAKNTVYLQMNSLKPEDTAVYYCALGFWHTYGYWGQGTQVTVSS", "polyreactivity (PSR sort gate)": "high polyreactivity"}
{"sequence": "QVQLVESGGGLVQAGGSLRLSCAASGLFFYAYSMGWYRQAPAKERELVAAISGSGGNTYYADSVKGRFTISRDNAKNSVYLQMNSLKQEDTAVYYCAADYTAAYPDSMYYWGQGTQVTVSS", "polyreactivity (PSR sort gate)": "low polyreactivity"}
{"sequence": "QVQLVESGGGLVQAGGSLRLSCAASGLIFAEYTMGWYRQAPGKERELVAAISWNGGSTYYADSVKGRFTISRDNAKNTVYLQMNSLKPEDTAVYYCAARYKRVKWYRYEYWGQGTQVTVSS", "polyreactivity (PSR sort gate)": "high polyreactivity"}
{"sequence": "QVQLVESGGGLVQAGGSLRLSCAASGLIFAFYAMGWYRQAPVKERELVASIDKSGGSTYADSVKGRFTISRDNAKNTVYLQMNSLKQEDTAVYYCAADYSLIDLFYWGQGTQVTVSS", "polyreactivity (PSR sort gate)": "low polyreactivity"}
{"sequence": "QVQLVESGGGLVQAGGSLRLSCAASGLIFAGYAMGWYRQAPGKERELVAAITWRGGRTYADSVKGRFTISRDNAKNTVYLQMNSLKPEDTAVFYCAVRRWGTSFVEDDYWGQGTQVTVSS", "polyreactivity (PSR sort gate)": "low polyreactivity"}
{"sequence": "QVQLVESGGGLVQAGGSLRLSCAASGLIFASYAMGWYRQAPGKERELVAAISWSGGSTYYADSVKGRFTISRDNAKNTVYLQMNSLKPEDTAVYYCAARKLFIPKYYYWGQGTQVTVSS", "polyreactivity (PSR sort gate)": "high polyreactivity"}
{"sequence": "QVQLVESGGGLVQAGGSLRLSCAASGLIFATYTMGWYRQAPGKERELVAAITWSGGRTYYADSVKGRFTISRDNAKNTVYLQMNSLKPEDTAVYYCAADPSYALGYDYWGQGTQVTVSS", "polyreactivity (PSR sort gate)": "high polyreactivity"}
{"sequence": "QVQLVESGGGLVQAGGSLRLSCAASGLIFAYNTMGWYRQAPGKERELVAGITSGGSTYYADSVKGRFTISRDNAKNTVYLQMNSLKPEDTAVYYCAAAYRTGSVSFGYWGQGTQVTVSS", "polyreactivity (PSR sort gate)": "high polyreactivity"}
{"sequence": "QVQLVESGGGLVQAGGSLRLSCAASGLIFDGNAMGWYRPAPGKERELVADITGSSVRTYYADSVKGRFTISRDNAKNTVSLQMNSLIPEDTAVYYCAATYGYLYTGLSRYDYWGQGTQVTVSS", "polyreactivity (PSR sort gate)": "low polyreactivity"}
{"sequence": "QVQLVESGGGLVQAGGSLRLSCAASGLIFDPNTMGWYRQAPGKERELVAAISSGGDTNYADSVKGRFTISRDNAKNTVYLQMNSLKPEDTAVYYCATDIRFHDPSEYEGVDFEFWGQGTQVTVSS", "polyreactivity (PSR sort gate)": "low polyreactivity"}
{"sequence": "QVQLVESGGGLVQAGGSLRLSCAASGLIFDSYDMGGSRQAPGKERELVAAIRRNGGSTYYADSLKGRFTISRDNAKNTVYLQMNSLIPEDTEVYYCAVDNSGYSGVYWVKMDYWGQGTQVTVSS", "polyreactivity (PSR sort gate)": "low polyreactivity"}
{"sequence": "QVQLVESGGGLVQAGGSLRLSCAASGLIFDTNAMGWYRQAPGKERELVAAISLDGGSTYYADSVKGRFTISRDNAKNTVYLQMNSLKPEDTAVYYCNADYYANSITYDSWGQGTQVTVSS", "polyreactivity (PSR sort gate)": "low polyreactivity"}
{"sequence": "QVQLVESGGGLVQAGGSLRLSCAASGLIFDTYAMGWYRQAPGKERELVADITWSGGSTYYADSVKGRFTISRDNAKNTVYLQMNSLKPEDTAVYYCAADSVSLFYWDQRYPDEYDYWGQGTQVTVSS", "polyreactivity (PSR sort gate)": "low polyreactivity"}
{"sequence": "QVQLVESGGGLVQAGGSLRLSCAASGLIFESYVMGWYRQAPGKERELVAAIRSSGGSTYYADSVKGRFTISRDNAKNTVYLQMNSLKPEVTAVYYCSVKGYGEYDYWGQGTQVTVSS", "polyreactivity (PSR sort gate)": "low polyreactivity"}
{"sequence": "QVQLVESGGGLVQAGGSLRLSCAASGLIFEYYAMGWYRQAPGKERELGAAISGSGGSTYYADSVKGRFTISRDNAKNTVSLQMNSRKPEDTAVDYCNVVGYRWSEFDYWGQGTQVTVSS", "polyreactivity (PSR sort gate)": "low polyreactivity"}
{"sequence": "QVQLVESGGGLVQAGGSLRLSCAASGLIFFHNGMGWYRQAPGKEREFVAVISSSGGSTYYADSVKGRFTISRDNAKNTVYLQMNSLKPEDTAVYYCAARDYSRRYGYWGQGTQVTVSS", "polyreactivity (PSR sort gate)": "high polyreactivity"}
{"sequence": "QVQLVESGGGLVQAGGSLRLSCAASGLIFFTYAMGWYRHAPGKERELVATISRGGRTKYADSVKGRFTISRDNAKNTVYLQMNSLKPEDTAVYYCAAYLSRSYYAYDYWGQGTQVTVSS", "polyreactivity (PSR sort gate)": "high polyreactivity"}
{"sequence": "QVQLVESGGGLVQAGGSLRLSCAASGLIFFYYPMGWYRQAPGKEWEMVAAIRTNYADSVKGRFTISRDNAKNTVDLQMYSLKREDTADYYCAAESSQTPTSAFDYWGQGTQVTVSS", "polyreactivity (PSR sort gate)": "low polyreactivity"}
{"sequence": "QVQLVESGGGLVQAGGSLRLSCAASGLIFGPYAMGWYRQAPGKERELDAAITSSGGSTYNADSVKGRFTISRDNAKKSVYLQMNSLKPEDTAVYYCAARGSPRYYARYNYWGQGTQVTVSS", "polyreactivity (PSR sort gate)": "low polyreactivity"}
{"sequence": "QVQLVESGGGLVQAGGSLRLSCAASGLIFGRNAMGWYRQAPGKERELVAAITSGGSTYYADSVKGRFTISRDNAKNTVYLQMNSLKPEDTAVYYCFVDYYPYDYWGQGTQVTVSS", "polyreactivity (PSR sort gate)": "low polyreactivity"}
{"sequence": "QVQLVESGGGLVQAGGSLRLSCAASGLIFGRYAMGWYRQAPGKERELVAAINRNGGSTYYADSVKGRFTISRDNAKNTVYLQMNSLKPEDTAVYYCAAQYRSSRGHYDYWGQGTQVTVSS", "polyreactivity (PSR sort gate)": "high polyreactivity"}
{"sequence": "QVQLVESGGGLVQAGGSLRLSCAASGLIFGRYAMGWYRQAPGKERELVAAISSSGVRTYYADSVKGRFTISRDNAKNTVYLQMNSLNPEDTAVYYCAAYDWYISEDYRYYYFWEYDYWGQGTQVTVSS", "polyreactivity (PSR sort gate)": "high polyreactivity"}
{"sequence": "QVQLVESGGGLVQAGGSLRLSCAASGLIFGSYVMGWYRQAPGKERELVAAISSSGGSTYYADSVKVRFTISRDNENNTFYLQMNSLKPEDTAVYYCAARYTYSADKGYYWGQGTQVTVSS", "polyreactivity (PSR sort gate)": "high polyreactivity"}
{"sequence": "QVQLVESGGGLVQAGGSLRLSCAASGLIFGVNAMGWYRQAPGKERELVAGISGSTGSTYYADSVKGRFTISRDNAKNTLYVQMNSLKPEDSAVYYCAKRSRRRGYRYDYWGQGTQVTVSS", "polyreactivity (PSR sort gate)": "high polyreactivity"}
{"sequence": "QVQLVESGGGLVQAGGSLRLSCAASGLIFGWYAMGWDRQAPGKERELVAAITRSGGSTYYADSVKGRFTISRDTAKNTVYLQMHSLKPEDTAVYSCAAEIHYSYTRGYGYWGQGTQVTVSS", "polyreactivity (PSR sort gate)": "high polyreactivity"}
{"sequence": "QVQLVESGGGLVQAGGSLRLSCAASGLIFGWYAMGWYRQAPGKERELVAAITRSGGSTYYADSVKGRFTISRDNAKNTVYLQMNSLKPEDTAVYYCAARSYVPSYDYWGQGTQVTVSS", "polyreactivity (PSR sort gate)": "high polyreactivity"}
{"sequence": "QVQLVESGGGLVQAGGSLRLSCAASGLIFGWYAMGWYRQAPGKERELVAGISGSGGITYYADSVKGRFTISRDNAKNTVYLQMNSLKPEDTAVYYCATAAASHKYGYWGQGTQVTVSS", "polyreactivity (PSR sort gate)": "low polyreactivity"}
{"sequence": "QVQLVESGGGLVQAGGSLRLSCAASGLIFGYNAMGWYRQAPGKEREFVAGISSSGVSTYYADSVKGRFTISRDNAKNTVYLQMNSLKPEDTAVYYCAADTVDLEFDYWGQGTQVTVSS", "polyreactivity (PSR sort gate)": "low polyreactivity"}
{"sequence": "QVQLVESGGGLVQAGGSLRLSCAASGLIFGYYAMGWYRQAPGKEREFVAAIDGSDGTTYYADSVKGRFTISRDNAKNTVYLQMTSQKPEDTAVYYCNADSSSYSSDLGYDYWGQGTQVTVSS", "polyreactivity (PSR sort gate)": "low polyreactivity"}
{"sequence": "QVQLVESGGGLVQAGGSLRLSCAASGLIFGYYAMGWYRQAPGKERELVARITRRGGSTYYADSVKGRFTISRDNAKNTVYLQRNSLKPEDTAVYYCAADWYSPRISREYDYWGQGTQVTVSS", "polyreactivity (PSR sort gate)": "high polyreactivity"}
{"sequence": "QVQLVESGGGLVQAGGSLRLSCAASGLIFHSYAMGWYRQAPGKERELVAAISKRGGSTYYADSVKGRFTISRDNAKNTVYLQMNSLKPEDTAVYYCAAGARGLYDYWGQGTQVTVSS", "polyreactivity (PSR sort gate)": "high polyreactivity"}
{"sequence": "QVQLVESGGGLVQAGGSLRLSCAASGLIFIFNTMGWYRQAPGKERELVAAISWSGTSTYYADSVKGRFTISRDNAKNTVYLQMHSLKPEDTAVYYCAARGYYYKYSTARRNYWGQGTQVTVSS", "polyreactivity (PSR sort gate)": "high polyreactivity"}
{"sequence": "QVQLVESGGGLVQAGGSLRLSCAASGLIFIIYTMGWYRQAPGKERELVAAITRRGGITYYADSVKGRFTISRDYAKNTVYLQMNSLKPEDTAVYYCAVVRPYNIWYDYWGQGTQVTVSS", "polyreactivity (PSR sort gate)": "low polyreactivity"}
{"sequence": "QVQLVESGGGLVQAGGSLRLSCAASGLIFKFYPMGWYRQAPGKERELVASIRGSGDNTYYADSVKGRFTISRDNAKNTVYLQMNSLKPEDTAVYYCNARASYSWHGIRGKYDYWGQGTQVTVSS", "polyreactivity (PSR sort gate)": "high polyreactivity"}
{"sequence": "QVQLVESGGGLVQAGGSLRLSCAASGLIFKGYDMGWYRQAPGKERELVAAISSGSTNYADSVKGRFTISRDNAKNTGYLQMNSLKPEDTAVYYCNADLGRATFYQRVFIERGGYWGQGTQVTVSS", "polyreactivity (PSR sort gate)": "low polyreactivity"}
{"sequence": "QVQLVESGGGLVQAGGSLRLSCAASGLIFKLNAMGWYRQAPGKARELVAAIRASTGSTYYADSVKGRFTISRDNAKNTVYLQMNSLKPEDTAVYYCAVRLRWYFFLMDYWGQGTQVTVSS", "polyreactivity (PSR sort gate)": "high polyreactivity"}
{"sequence": "QVQLVESGGGLVQAGGSLRLSCAASGLIFLGNAMGWYRQAPGKERELVAAISRSGGTTYYADSVKGRFTISRDNEKNTVYLQMNSLKPEDTAVYYCNAYNPYYRATVSSRGYGYWGQGTQVTVSS", "polyreactivity (PSR sort gate)": "high polyreactivity"}
{"sequence": "QVQLVESGGGLVQAGGSLRLSCAASGLIFLGYARGWYRQSPGKERELVASIRTGGSTSYADSVKGRFTISRDNAKNTVYLQMNSLKPEDTAVYYCAADRGRPNLPGDYWGQGTQVTVSS", "polyreactivity (PSR sort gate)": "low polyreactivity"}
